The values that follow come from article PMC7016029.

Where two headings read alike, the source gives them in different places.

Data set [1] deals with T1, VEGFR-1 Fc chimera (UniProt P17948 27-758). In words: SPR.
The target in data set [2] is T1, VEGFR-1 Fc chimera. In words: SPR. This is another data set of the same source.

T1 sequence (P17948 27-758, change not shown): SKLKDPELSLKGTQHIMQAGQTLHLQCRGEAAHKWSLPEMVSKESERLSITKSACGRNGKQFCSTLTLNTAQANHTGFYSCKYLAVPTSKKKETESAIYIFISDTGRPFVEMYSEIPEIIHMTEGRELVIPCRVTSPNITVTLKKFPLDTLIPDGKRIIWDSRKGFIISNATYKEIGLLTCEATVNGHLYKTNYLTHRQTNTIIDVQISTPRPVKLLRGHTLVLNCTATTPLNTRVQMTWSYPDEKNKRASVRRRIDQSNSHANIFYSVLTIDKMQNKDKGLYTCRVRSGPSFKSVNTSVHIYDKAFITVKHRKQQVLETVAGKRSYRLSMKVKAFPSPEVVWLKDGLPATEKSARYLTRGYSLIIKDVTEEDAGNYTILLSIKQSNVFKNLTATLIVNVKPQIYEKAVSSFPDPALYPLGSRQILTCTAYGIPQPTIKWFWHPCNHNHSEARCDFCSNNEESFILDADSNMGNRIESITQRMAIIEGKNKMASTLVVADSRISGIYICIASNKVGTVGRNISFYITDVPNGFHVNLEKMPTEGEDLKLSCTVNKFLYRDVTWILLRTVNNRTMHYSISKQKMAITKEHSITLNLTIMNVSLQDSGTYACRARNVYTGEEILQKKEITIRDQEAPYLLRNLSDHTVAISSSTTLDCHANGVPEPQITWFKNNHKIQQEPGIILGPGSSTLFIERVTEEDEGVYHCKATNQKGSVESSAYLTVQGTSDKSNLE

In turn, GTCGTGTTTGTTGTTGTTTTCATTTTTGCGGCCC (structured_DNA) [Apt01] returned a Kd with VEGFR-1 Fc chimera [1] of 3.3 nM.

In turn, GCTGATAGGATGGGTTGTAGGTCTAGGGGGGGGCC (structured_DNA) [Apt02] displayed a Kd with VEGFR-1 Fc chimera [2] of 1.5 nM.
